Legend:
SoPrpF = biological target: T1, SoPrpF (Shewanella oneidensis, UniProt Q8EJW4); experiment: HPLC time course; coupled aconitase assay; type: biochemical; conditions: substrate is the SoAcnD product of 2-methylcitrate; Tris-HCl 50 mM pH 8.0, KCl 100 mM
T1 construct: gene prpF; recombinant from pPRP196 (pTEV4, N-terminal TEV-cleavable H6 tag), purified as in earlier work; homodimer

SePrpD = biological target: T2, SePrpD (Salmonella enterica, UniProt P74840); experiment: HPLC of reaction products; type: biochemical; conditions: 5 mM substrate, Tris-HCl 90 mM pH 8.0, 37°C, 1.5 h
T2 construct: gene prpD; recombinant, His-tagged, purified from E. coli
T2 sequence (P74840 1-483): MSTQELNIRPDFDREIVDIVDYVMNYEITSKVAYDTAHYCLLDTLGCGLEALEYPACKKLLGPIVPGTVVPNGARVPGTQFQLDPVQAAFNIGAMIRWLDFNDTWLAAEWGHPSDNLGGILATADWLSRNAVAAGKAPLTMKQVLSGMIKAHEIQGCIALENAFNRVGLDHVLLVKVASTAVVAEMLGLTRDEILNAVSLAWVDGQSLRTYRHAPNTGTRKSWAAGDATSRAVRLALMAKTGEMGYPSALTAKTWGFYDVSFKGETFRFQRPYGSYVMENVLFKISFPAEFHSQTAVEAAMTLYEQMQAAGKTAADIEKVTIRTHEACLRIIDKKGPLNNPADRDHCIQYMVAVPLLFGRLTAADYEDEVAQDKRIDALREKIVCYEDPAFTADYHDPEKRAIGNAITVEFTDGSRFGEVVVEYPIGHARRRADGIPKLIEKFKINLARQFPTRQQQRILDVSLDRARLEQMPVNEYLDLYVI

[1] = test system: C/C(C(=O)O)=C(\CC(=O)O)C(=O)O; experiment: purified protein; conditions: Tris-HCl 50 mM pH 8.0, KCl 100 mM, 37°C, Fe/S-reactivated enzyme
[2] = biological target: the molecule itself; experiment: crystal structure; hanging drop vapor diffusion, MES 100 mM pH 6.0, sodium malonate 136 mM, PEG 4K 15% w/v, room temperature; space group P2(1), two chains in the asymmetric unit related by a non-crystallographic twofold axis; 1.22 Å
purified protein = substrate: O=C(O)/C=C(/CC(=O)O)C(=O)O; experiment: purified protein; conditions: Tris-HCl 50 mM pH 8.0, KCl 100 mM, 37°C, Fe/S-reactivated enzyme

T1 sequence (Q8EJW4 whole entry): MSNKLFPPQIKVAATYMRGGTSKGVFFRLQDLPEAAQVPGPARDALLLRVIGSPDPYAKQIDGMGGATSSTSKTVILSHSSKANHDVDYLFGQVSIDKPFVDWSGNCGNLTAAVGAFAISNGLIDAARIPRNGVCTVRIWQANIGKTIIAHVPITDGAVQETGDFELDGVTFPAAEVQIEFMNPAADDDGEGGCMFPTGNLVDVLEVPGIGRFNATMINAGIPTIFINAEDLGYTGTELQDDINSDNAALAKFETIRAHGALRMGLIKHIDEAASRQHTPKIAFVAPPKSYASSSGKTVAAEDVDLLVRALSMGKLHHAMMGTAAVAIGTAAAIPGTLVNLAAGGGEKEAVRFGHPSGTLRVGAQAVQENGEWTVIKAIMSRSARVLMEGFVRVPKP

C/C(C(=O)O)=C(\CC(=O)O)C(=O)O [2-methyl-cis-aconitate]
HPLC time course; coupled aconitase assay (SoPrpF): SoPrpF converted the SoAcnD reaction product into 2-methyl-cis-aconitate over time

CC(C(=O)O)C(O)(CC(=O)O)C(=O)O (stereo not shown) [2-methylcitrate]
HPLC of reaction products (SePrpD): SePrpD synthesized 2-methyl-cis-aconitate from 2-methylcitrate

SeAcnA (Salmonella enterica subsp. enterica serovar Typhimurium str. LT2)
Km [1]: 210 ± 35 µM
Vmax [1]: 50 µM/min
kcat [1]: 11.8 ± 0.7 s⁻¹
kcat/Km [1]: 56700 M⁻¹ s⁻¹

SeAcnB (Salmonella enterica subsp. enterica serovar Typhimurium str. LT2)
Km [1]: 208 ± 39 µM
Vmax [1]: 10 µM/min
kcat [1]: 6.6 ± 0.667 s⁻¹
kcat/Km [1]: 31700 M⁻¹ s⁻¹

B1: Shewanella oneidensis MR-1 PrpF K73E variant (SoPrpF^K73E) (enzyme)
chain: MSNKLFPPQIKVAATYMRGGTSKGVFFRLQDLPEAAQVPGPARDALLLRVIGSPDPYAKQIDGMGGATSSTSETVILSHSSKANHDVDYLFGQVSIDKPFVDWSGNCGNLTAAVGAFAISNGLIDAARIPRNGVCTVRIWQANIGKTIIAHVPITDGAVQETGDFELDGVTFPAAEVQIEFMNPAADDDGEGGCMFPTGNLVDVLEVPGIGRFNATMINAGIPTIFINAEDLGYTGTELQDDINSDNAALAKFETIRAHGALRMGLIKHIDEAASRQHTPKIAFVAPPKSYASSSGKTVAAEDVDLLVRALSMGKLHHAMMGTAAVAIGTAAAIPGTLVNLAAGGGEKEAVRFGHPSGTLRVGAQAVQENGEWTVIKAIMSRSARVLMEGFVRVPKP
notes: PrpF (2-methylaconitate isomerase) of Shewanella oneidensis MR-1, with the substitution K73E; prpF+ cloned into pTEV4 (template pPRP196); also called Apo-SoPrpF^K73E; prpF258; source: E. coli, plasmid pPRP221 (pTEV4), IPTG-induced, purified (Maxwell 16 system)
binding result [2]: binds

B2: SeAcnB (Salmonella enterica subsp. enterica serovar Typhimurium str. LT2) (protein)
chain: MLEEYRKHVAERAAQGIVPKPLDATQMAALVELLKTPPVGEEEFLLDLLINRVPPGVDEAAYVKAGFLAAVAKGDTTSPLVSPEKAIELLGTMQGGYNIHPLIDALDDAKLAPIAAKALSHTLLMFDNFYDVEEKAKAGNEYAKQVMQSWADAEWFLSRPPLAEKITVTVFKVTGETNTDDLSPAPDAWSRPDIPLHAQAMLKNAREGIEPDQPGVVGPIKQIEALQKKGYPLAYVGDVVGTGSSRKSATNSVLWFMGDDIPNVPNKRGGGLCLGGKIAPIFFNTMEDAGALPIEVDVSNLNMGDVIDVYPYKGEVRNHETGELLATFELKTDVLIDEVRAGGRIPLIIGRGLTTKAREALGLPHSDVFRQAKDVAESSRGFSLAQKMVGRACGVKGIRPGAYCEPKMTSVGSQDTTGPMTRDELKDLACLGFSADLVMQSFCHTAAYPKPVDVTTHHTLPDFIMNRGGVSLRPGDGVIHSWLNRMLLPDTVGTGGDSHTRFPIGISFPAGSGLVAFAAATGVMPLDMPESVLVRFKGKMQPGITLRDLVHAIPLYAIKQGLLTVEKKGKKNIFSGRILEIEGLPDLKVEQAFELTDASAERSAAGCTIKLNKEPIVEYLTSNIVLLKWMIAEGYGDRRTLERRIQGMEKWLADPQLLEADADAEYAAVIDIDLADIKEPILCAPNDPDDARLLSDVQGEKIDEVFIGSCMTNIGHFRAAGKLLDNHKGQLPTRLWVAPPTRMDAAQLTEEGYYSVFGKSGARIEIPGCSLCMGNQARVADGATVVSTSTRNFPNRLGTGANVFLASAELAAVAALIGKLPTPEEYQTYVAQVDKTAVDTYRYLNFDQLSQYTEKADGVIFQTAV
Km (purified protein): 17 ± 3 µM
Vmax (purified protein): 21 µM/min
kcat (purified protein): 34.9 ± 1.67 s⁻¹
kcat/Km (purified protein): 2.05e+06 M⁻¹ s⁻¹

B3: SeAcnA (Salmonella enterica subsp. enterica serovar Typhimurium str. LT2) (protein)
chain: MSSTLREASKDTLQAKDKTYHYYSLPLAAKSLGDIARLPKSLKVLLENLLRWQDGESVTDEDIQALAGWLKNAHADREIAWRPARVLMQDFTGVPAVVDLAAMREAVKRLGGDTSKVNPLSPVDLVIDHSVTVDHFGDDDAFEENVRLEMERNHERYMFLKWGKQAFSRFSVVPPGTGICHQVNLEYLGKAVWSELQDGEWIAYPDSLVGTDSHTTMINGLGVLGWGVGGIEAEAAMLGQPVSMLIPDVVGFKLTGKLREGITATDLVLTVTQMLRKHGVVGKFVEFYGDGLDSLPLADRATIANMSPEYGATCGFFPIDAITLEYMRLSGRSDDLVELVETYAKAQGMWRNPGDEPVFTSTLELDMGDVEASLAGPKRPQDRVALGDVPKAFAASAELELNTAQRDRQPVDYTMNGQPYQLPDGAVVIAAITSCTNTSNPSVLMAAGLLAKKAVTLGLKRQPWVKASLAPGSKVVSDYLAQAKLTPYLDELGFNLVGYGCTTCIGNSGPLPEPIETAIKKGDLTVGAVLSGNRNFEGRIHPLVKTNWLASPPLVVAYALAGNMNINLATDPLGYDRKGDPVYLKDIWPSAQEIARAVELVSSDMFRKEYAEVFEGTEEWKSIQVESSDTYGWQSDSTYIRLSPFFDEMQAQPAPVKDIHGARILAMLGDSVTTDHISPAGSIKPDSPAGRYLQNHGVERKDFNSYGSRRGNHEVMMRGTFANIRIRNEMLPGVEGGMTRHLPGTEAMSIYDAAMLYQQEKTPLAVIAGKEYGSGSSRDWAAKGPRLLGIRVVIAESFERIHRSNLIGMGILPLEFPQGVTRKTLGLTGEEVIDIADLQNLRPGATIPVTLTRSDGSKETVPCRCRIDTATELTYYQNDGILHYVIRNMLN
Km (purified protein): 22 ± 2 µM
Vmax (purified protein): 86 µM/min
kcat (purified protein): 62.3 ± 1.45 s⁻¹
kcat/Km (purified protein): 2.83e+06 M⁻¹ s⁻¹

— article PMC5690661, “The PrpF protein of Shewanella oneidensis MR-1 catalyzes the isomerization of 2-methyl-cis-aconitate during the catabolism of propionate via the AcnD-dependent 2-methylcitric acid cycle” (PLoS ONE, 2017)
